Measurements published in patent US20070212705.
Read-outs that look alike come from different tables or passages of the source.

Target: T1, Tetrapeptide Lys substrate L-Ala-γ-D-Glu-L-Lys-D-Ala
T1 chain: AEKA

B1: P. aeruginosa L-D carboxypeptidase A (PA LDC), N-terminal his-tagged, expressed from pET14b in E. coli BL21 (protein)
chain: MTSRPSSDQTWQPIDGRVALIAPASAIATDVLEATLRQLEVHGVDYHLGRHVEARYRYLAGTVEQRLEDLHNAFDMPDITAVWCLRGGYGCGQLLPGLDWGRLQAASPRPLIGFSDISVLLSAFHRHGLPAIHGPVATGLGLSPLSAPREQQERLASLASVSRLLAGIDHELPVQHLGGHKQRVEGALIGGNLTALACMAGTLGGLHAPAGSILVLEDVGEPYYRLERSLWQLLESIDARQLGAICLGSFTDCPRKEVAHSLERIFGEYAAAIEVPLYHHLPSGHGAQNRAWPYGKTAVLEGNRLRW
cleavage of tetrapeptide substrate: express a functional PA LDC protein that cleaved a tetrapeptide substrate in a dose dependent manner | cleavage of tetrapeptide substrate (RFU, Amplex Red detection of D-alanine released) (scale: fold lower specific activity compared to E. coli LDC): 2

B2: E. coli LDC protein (muramoyl-tetrapeptide carboxypeptidase P76008) (protein)
chain: MSLFHLIAPSGYCIKQHAALRGIQRLTDAGHQVNNVEVIARRCERFAGTETERLEDLNSLARLTTPNTIVLAVRGGYGASRLLADIDWQALVARQQHDPLLICGHSDFTAIQCGLLAHGNVITFSGPMLVANFGADELNAFTEHHFWLALRNETFTIEWQGEGPTCRAEGTLWGGNLAMLISLIGTPWMPKIENGILVLEDINEHPFRVERMLLQLYHAGILPRQKAIILGSFSGSTPNDYDAGYNLESVYAFLRSRLSIPLITGLDFGHEQRTVTLPLGAHAILNNTREGTQLTISGHPVLKM
cleavage of tetrapeptide substrate (RFU, Amplex Red detection of D-alanine released): illustrates the cleavage of a tetrapeptide substrate (L-Ala-γ-D-Glu-L-Lys-D-Ala) by E. coli LDC (squares)
